Data as given in the nanobody polyreactivity screen of Harvey et al. (2022).

Test: yeast display, Sf9 membrane polyspecificity reagent, FACS + sequencing; frameworks hold sequencing errors
How it was run: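 In a synthetic yeast display library (Saccharomyces cerevisiae BJ5465), nanobody expression was induced with galactose for 36–48 hours. FACS gates were set low and high (top ~1%) using anti-HA fluorescence for expression and streptavidin fluorescence for binding of the Sf9 membrane reagent. Each polyreactivity label is drawn from the gate of origin.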

Row | Sequence | polyreactivity (PSR sort gate)
1 | QVQLVESGGGLVQAGGCLRLSCAASGFTFIYYVMGWYRQAPGIERELVAAINGRGDRKYYADSVKGRFTISRDNAKNTVYLQMTSLKPEETAVYYCNARTHTWGYSAKFDYWGQGTQVTVSS | high polyreactivity
2 | QVQLVESGGGLVQAGGCLRVSCAASGFISGYYAMGGYSQAPGIERELVAAIDWIGGSTYYAESVKGRFTISRDNAKNTEYFQMNSLKPEDTAVYDCAASYKYGSSWGDGYWGQGTQVTVSS | low polyreactivity
3 | QVQLVESGGGLVQAGGGLRLSCAASGFTFTKYAMGLYRQAPGKERELVAAITSGTSTYYADSVKGRFTISRDNAKNTVYLQMNSLKPEDTAVYYCAAPLYGRYSYGYWGQGTQVTVSS | high polyreactivity
4 | QVQLVESGGGLVQAGGGLRLSCAASGRTIPTYAMGWYRQAPGKERELVATITSAGSTNYADSVKGRFTISRDNAKNTVYLQMNSLKPEDTAVYYCAARRRLAWGQGTQVTVSS | high polyreactivity
5 | QVQLVESGGGLVQAGGGLRLSCAASGSYYKYYAMGWYRQAPGKEREFVAAITRSGGSTYYADSVKGRFTISRDNAKNTDYLQMNSLKPEDTAVYYCATDLRTRNYDYWGQGTQVTVSS | high polyreactivity
6 | QVQLVESGGGLVQAGGILRLSCAACGITVTSYAMGWYRQAPGKERELVAVITGTGGITYYADSVKGRFTISRDNAKNTVYLQMNSLKPEDTAVYYCAAELELREYDYWGQGNQVTVSS | high polyreactivity
7 | QVQLVESGGGLVQAGGILRLSCAASGFIFNSYAMGWYRQAPGKERELVAAITKSGGRTYYADSVKGRFTISRDNEKNTVYFQMNSLKPEDTAVYYCAARAYRSSVYRGDYWGQGTQVTVSS | high polyreactivity
8 | QVQLVESGGGLVQAGGILRLSCAASGFIIRGNVMGWYRQAPGKERELVAAISGRGGSTYYADSVKGRFTISRDNAKNTVYLQMNSLKPEDTAVYYCNAAGLYNSRLDYWGQGTQVTVSS | high polyreactivity
9 | QVQLVESGGGLVQAGGILRLSCAASGFTFQNNAMGWYRQAPGKERELVARITRSDGSTYYADSVKGRFTISRDNAKNTVYLQMNSLKPEDNAVYYCAARYGLLGSSRGGYWGQGTQVTVSS | low polyreactivity
10 | QVQLVESGGGLVQAGGILRLSCAASGFTFWYYVMGWYRQAPGKERELVAAITSSGDSTYYADSVKGRFTISRDNAKNTVYLQMNSLKPEDTAVYYCAAQRYPFERVYWGQGTQVTVSS | high polyreactivity
11 | QVQLVESGGGLVQAGGILRLSCAASGFTSWDNDMGWYRQAPGKERELVAAISRGGSTNYADSVKGRFTLSRDNAKNTVYLQMNSLKPEDPAVYYCATAAVTPVWYDYWGQGTQVTVSS | low polyreactivity
12 | QVQLVESGGGLVQAGGILRLSCAASGIIFGYNAMGWYRQAPGKERELVAAISYGGGRTYYADSVKGRFTISRDNAKNSVYLQMNSLKPEDTAVYYCAAQYFASRSYGYDYWGQGTQVTVSS | high polyreactivity
13 | QVQLVESGGGLVQAGGILRLSCAASGIIFRKNAMGWYRQAPGKERELVAAISSTGASTNYADSVKGRFTISRDNAKNTVYLQMNSLKPEDTAVYYCAASRTRYWKYDYWGPGTQVTVSS | high polyreactivity
14 | QVQLVESGGGLVQAGGILRLSCAASGLIIGEYDMGWYRQAPGKERELVAAMSDRGTSTYYADSVKGRFTISRDNAKNTVDLPMNSLKPEDTAVYYCATDRIYYYSWEYDYWGQGTQVTVSS | low polyreactivity
15 | QVQLVESGGGLVQAGGILRLSCAASGLTFEQYAMGWYRQAPGKERELVAAISWSGGRTYYADSVKGRFTISRDNAKNTVYLQMNSLKPEDTAVYYCAKDRGCPFYWRYPLGYWGQGTQVTVSS | high polyreactivity
16 | QVQLVESGGGLVQAGGILRLSCAASGNIFAFYAMGWYRQAPVKERELVAAITDGTTTNYADSVKGRFTISRDNAKNTVYLQMNSLIPEDTAVYYSAADTGWWPWLERFRHYYYWGQGTQVTVSS | low polyreactivity
17 | QVQLVESGGGLVQAGGILRLSCAASGRIFCSYAMGWYRQAPGKERELVAAITRGASTNYADSVKGRFTISRDNAKNIVYLQMNSLKPEDTAVYYCAAGWGRYPILGYYYWGQGTQVTVSS | high polyreactivity
18 | QVQLVESGGGLVQAGGILRLSCAASGRIFGPYTMGWYRQAPGKEREFVAAISRSGDSTYYADSVKGRFTISRDNAKNTVYLQMNSLKPEDTAVYYCAAKYGTRLSAYYYWGQGTQVTVSS | high polyreactivity
19 | QVQLVESGGGLVQAGGILRLSCAASGRIFQHYPMGWYRQAPGKERELVAAISRSGDSTYYADSVKGRFTISRDNAKNTVYLQMNSLKPEDTAVYYCKIVRYSFLYDSWGQGTQVTVSS | high polyreactivity
20 | QVQLVESGGGLVQAGGILRLSCAASGRIFSYYAKGWYRQAPGKERELVAAITRGGSTNYADSVKGRFTISRDNAKNSVYLQMNSLKPEDTAVYYFAVRGGYTGPTYNYWGQGTQVTVSS | high polyreactivity
21 | QVQLVESGGGLVQAGGILRLSCAASGRTFGGNAIGWYRQAPGKERELVAAITVSAGHTYYADSVKGRFTISRDNAKNTVYLQMNSLKPEDTAVYYCAAGVPYYWSYVWKHPRFDHWGQGTQVTVSS | low polyreactivity
22 | QVQLVESGGGLVQAGGILRLSCAASGRTFGINAMGWYRQAPGKERELVARIRKTVGSTYYADSVKGRFTISRDNAKNTVYLQMNSLKPEDTAVYYCAADLRYGYLYPYDSWGQGTQVTVSS | high polyreactivity

Row | Sequence | polyreactivity (PSR sort gate)
23 | QVQLVESGGGLVQAGGILRLSCAASGRTFGIYVMGWYRQAPGKERELVAAIRSGGTTNYADTVKGRFTISRDNAKNTVYLKMNSLKPEDTAVYYCAASSRRSWTYDYWGQGTQVTVSS | high polyreactivity
24 | QVQLVESGGGLVQAGGILRLSCAASGRTFGLYAMGWYRQAPGKERELVASITRSGVSTTYADSVKGRFTISRDNAKNTVYLQMNSLKPVDTAVYYCNTDYTGPDGTDEYDYWGQGTQVTVSS | low polyreactivity
25 | QVQLVESGGGLVQAGGILRLSCAASGRTFRIYAMGRYRPAPAKVREFVAGITRSDGSTYYADSVKGRFTISRDNAKNTVSFQMNSLKPVDTEVYYCYVEPYSHYRRTEDYWGQGTEVTVSS | high polyreactivity
26 | QVQLVESGGGLVQAGGILRLSCAASGRTFSSNAMGWYRQAPGKERELVAVISSGGSTYYADSVNGRFTISRDNAKNTVYLQLNSLKPEDTAVYYCAAAGGPSGYYYESDYWGQGTQVTVSS | high polyreactivity
27 | QVQLVESGGGLVQAGGILRLSCAASGRTFVRNTMGWYRQAPGKERELVAVISRSGGSTYYADSVKGRFTISRDNAKNTVYLQMNRLKPEDTAVYYCNADTYSAGDYWGQGSQVTVSS | high polyreactivity
28 | QVQLVESGGGLVQAGGILRLSCAASGRTFYYYAMGWYRHERGKERELVAAISISGGTNYADSVKGRFTISRDNAKNTVYLQMNSLKPEDTAVYYCAAYLRHESPSIWDRYDYWGQGTQVTVSS | low polyreactivity
29 | QVQLVESGGGLVQAGGILRLSCAASGRTIDHYAKGSYRKAPGKERELVAAISTTGGSTYYADSVKGRFTISRDNAKNTVYLQMNSLKPADTAVYYCAARGLRTGGYWGQGTQVTVSS | high polyreactivity
30 | QVQLVESGGGLVQAGGILRLSCAASGRTLDYSAMGWYRQAPGKERELVASITSGGSTNYADSVKGRFTISRDTAKNTVYLQMNSLKPEDTEVYYCAADSAFYRDVKSNYWGQGTQVTVSS | low polyreactivity
31 | QVQLVESGGGLVQAGGILRLSCAASGRTYGGYAMGWYRQAPGKERELVASITSTGGTHYSDSVKGRFTISRDNAKNTVYLQMNSLKPEDTAVYYFAAGYYYWKYDYWGQGTQVTVSS | high polyreactivity
32 | QVQLVESGGGLVQAGGILRLSCAASGSIFGSYAMGWYRQAPGKERELVAGITYRGSSTYYADSVKGRFTISRDNAKNTVYLQMNSLKPEDTAVYYCAADPVFDEYDYWGQGTQVTVSS | low polyreactivity
33 | QVQLVESGGGLVQAGGILRLSCAASGSIFRVYAMGWYRQAPGKVRELVASISRRGGSTYYADSVKGRFTISRDNAKNTVYLQMNSLKPEDTAVYYCAATTYSGFDYCGQGTQVTVSS | high polyreactivity
34 | QVQLVESGGGLVQAGGILRLSCAASGSIFSSYGMGRYRQAPGKERELVAAITRGGGSTYYADSVKGRFTISRDNAKNTVYLQMNSLKPEDTAVYYCAARGWRYSYTSVLFDYWGQGTQVTVSS | high polyreactivity
35 | QVQLVESGGGLVQAGGILRLSCAASGSIFYGNDMGWYRQEPGKEREFVAGISWSGGSTYYADSVKGRFTISRDNAKNTVYVQMNSLKPEETAVYYCAAVRWGSYTLSDDYWGQGTQVTVSS | low polyreactivity
36 | QVQLVESGGGLVQAGGILRLSCAASGSIYKPNTMGWYRQAPGKERELVAAITRGGRTKYADSVKGRFTISRDNAKNTVYLQMNSLKPEDTAVYYCNKARYTVISYDEYDDWGQGTQVTGSS | high polyreactivity
37 | QVQLVESGGGLVQAGGILRLSCAASGSIYSGYAMGWYIQAPAKEREFVAAITSTSGSTYYADSVKVRFTISRDNAKNSVYLQMNSLKPEDTAVYYWAGYRYRYYSYDSWGQGTHVTVSS | high polyreactivity
38 | QVQLVESGGGLVQAGGILRLSCAASGSTFAYNAMGWYRQEPGKERELFAAISWSGGTTYYADSVKGRFTISRDNAKTTVYLQMNSLKPEDTAVYYCNAVYYPSYQQVRAHDYWGQGTQVTVSS | high polyreactivity
39 | QVQLVESGGGLVQAGGILRLSCAASGSTFDYNTMGWYRQAPGKERELVAAISESGGSTYYADSVKGRFTISRDNAKNTVYLQMNSLKPEDTAVYYCATDDFGGYFGEYDYWGQGTQVTVSS | low polyreactivity
40 | QVQLVESGGGLVQAGGILRLSCAASGSTFGYYTMGWYRQAPGKEREFVAAITRRGGSTYYADSVKGRFTISRDNAKNTVYLQMNSLKPEDTAVYYCAAESRYQPHYGYWGQGTQVTVSS | high polyreactivity
41 | QVQLVESGGGLVQAGGILRLSCAASGSTLTYYTMGWYRQAPGKERELVAHISWSSGRTYYADSVKGRFTISRDNAKNTVYLQMNSLKPEDTAVYYCNADRTYYRGLDYWGQGTQVTVSS | high polyreactivity
42 | QVQLVESGGGLVQAGGILRLSCAASGSTMGYYPMGWYRQEPGKERELVAAIRYSDGNTYYADSVKGRFTISRDTAKNTVYLQMNSLKPEDTAVYYCAADGGYYGRDYWGQGTQVTVSS | high polyreactivity
43 | QVQLVESGGGLVQAGGILRLSCAASGYIFVRNAMGWYRQAPGKERELVAAISGSGGSTYYADSVKGRFTISRDNAKNTVYLQMNRLKPEDTEVYYCAADYATVTWRGIAYDYWGQGTQVTVSS | low polyreactivity
